Source: the nanobody polyreactivity screen of Harvey et al. (2022)

Experiment: yeast display, Sf9 membrane polyspecificity reagent, FACS + sequencing; frameworks hold sequencing errors
Outline: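 Synthetic nanobody libraries on Saccharomyces cerevisiae BJ5465 were galactose-induced for 36–48 hours, stained 1 hour at 4 °C with 10% biotinylated, detergent-solubilized Sf9 membrane reagent and enriched on streptavidin microbeads. FACS then separated cells into low and high (top ~1%) gates by anti-HA (expression) and streptavidin (reagent binding) fluorescence. Genes were colony-PCR amplified, MiSeq 2 × 250 sequenced and CDR-length filtered. A clone's polyreactivity label is that of its gate of origin.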

Row | Sequence | polyreactivity (PSR sort gate)
1 | QVQLVESGGGLVQAGGSLRLSCAASGSTLAKYAMGWYRQAPGKERELVAAISWSGGRTYYADSVKGRFTISRDNAKNTVYLQMNSLKPEDTAVYYCAARARSSRTYHDDYWGQGTQVTVSS | high polyreactivity
2 | QVQLVESGGGLVQAGGSLRLSCPASGRIFPKNAMGWYRQAPGKERELVAAIDYSDGSTNYADSVKGRFTFSRDTAKNTVYLQMNSLKPDDTAVYYCAIVAVPSYDYWGQGTKVTVSS | low polyreactivity
3 | QVQLVESGGGLVQAGGSLRLSCAASGSTFRWNAMGWYRQAPGKERELVAAITWSGGSTYYADSVKGRFTISRDNAKNTVYLQMNSLKPEDTAVYYCNAGGLFQYDSWGQGTQVTVSS | low polyreactivity
4 | QVQLGESGGGLVQAGGSLRLSCAASARNSSFYEMGWYRQAPGKGSELVAAINWDDGTTYYADSVMGRFTISRDNAQNNVYFQKNSLNPEDTAVYYCAVEGFSSAAYDFEYWGQGSQVTVSS | high polyreactivity
5 | QVQLVESGGGLVQAGGSLRLICAASGLIFGKYAMGWYRQAPGKEREFVAAITRSGGSTYYADSVKGRFTISRDNAKNTVYLQMNSLKPEDTAVYYCAAYSLKYYNGYDYWGQGTQVTVSS | high polyreactivity
6 | QVQLVESGGGVVQAGGSLRLSCAASGRNFVYNAMGLYRQAPGKERELVAAIYSGGRTYYADSVKGRFTISRDNAKNTVYFKMYSLKPEDTAVYYCAARWYVLPTQTRPYYGYYYWGQGTQVTVSS | high polyreactivity
7 | QVQLVESWGGIVQAGGSLRLSCAASGSTFHDYAMGWYRQAPGKERELVAAISRRASRTYYADSVKGRFTISRDNAKNTDFLQMNSLKPEDTAVYDCNTDQSQKTVVYDYWGQGTQVTVSS | high polyreactivity
8 | QVQLVESGGGLVQAGGSLRLSCAASGITFGFNAMGWYRQAPGKERELVAAIRWGSGRTYYADSVKGRFTISRDNAKNTVYLQMNSLKPEDTAVYYCAAAPTTGKRPGYYYWGQGTQVTVSS | high polyreactivity
9 | QVQLVESGGGLVQAGGSLRLSCAASGLIFSYYAMGWYRQAPGKERELVAAITGSGGTTYYADSVKGRFTISRDNAKNTVYLQMNSLKPEDTAVYYCATPPPEVWQRWYREYDYWGQGTQVTVSS | low polyreactivity
10 | QVQLVESGGGLVQAGGSLRLSCAASGYIFYNYAMGWYRQAPGKERELVAAISRRGGSTYYADSVKGRFTISRDNAKNTVYLQMNSLKPEDTAVYYCAKTPYAHPNYYTDYYWGQGTQVTVSS | high polyreactivity
11 | HVQQQESGGGLEQAGGSLRLSCAASGNISYSRNMGWYRQAPGKERELVAAIDRGAITYYADSVKGRFTISRDNAKNTVYLQIYSLKPEDTAVYYCAAVYHDRWDHRYWGQGTQVTVSR | high polyreactivity
12 | QVQLVESGGGLVQAGGSLRLSCAASGSTFGYYAMGWYRQAPGKESELVATINWSGGSTYYADSVKGRFTISRDNAKNTVYLQMNSLKPEDTAVYYCAADPYLQYYWAYDYWGQGTQVTVSS | low polyreactivity
13 | QVQLVESGGGLVQAGGSLRLSCAASGRIFNQSGMGWYRQAPGKERELVAAIRSGDSTNYADSVKGRFTISRDNAKNTVYLQMNSLKPEDTAVYYCAKDSDYPDYVSTKGDYDYWGQGTQVTVSS | low polyreactivity
14 | QVQHVESGGGLVQAGGSLRLSCAASGSTFDRYAMAWYRQAPGKERELVAAISRSTGRTNYADSVKGRFTISRDNAKNTVYLQMNSLIPEDTAVYYCAAYRYLRYDYWGQGTQVTVSS | high polyreactivity
15 | QVQLVDSGGGLVQAGGSLRLSCPASGFIFAKYAKGWSRQAPGKERELGAAITSGGSTNYADSVTGRFTISRDNAKNTVYLQMHSLKPEDTAVYYCNRGFDWWYRYRHYDYWGQGTQVTVSS | low polyreactivity
16 | QVQLVESGGGLVQAGGSLRLSCAASGNTFSDYAMGWYRQAPGKERELVAAISSSGVRTYYADSVKGRFTISRDNAKNTVYLQMNSLKPEDTAVYYCNAGYVRRYYPASGYGYWGQGTQVTVSS | high polyreactivity
17 | QVQLVESGGGLVQAGGSLRLSCAASGRILASYAMGWYRQAPGKERELVAAISRSGGSTYYADSVKGRFTISRDNAKNTVYLQMNSLKPEDTAVYYCAAKYPQKTPVNSYGNSFYYWGQGTQVTVSS | high polyreactivity
18 | QVQHVESGGGLVQAGGSLRLSCAPSGRIFRYNAMGWYRQAPGKERELVAVISTRGGSTFYADSVKGRFTISRDNAKNTVYFQMNSLKPEDTAVYSCAAYRRHPFGGGYWGQGTQVTVSS | high polyreactivity
19 | QVQLVESGGGLVQAGGSLRLSCAASGRTFRYYAMGWYRQAPGKERELVAAITSGGSTNYADSVKGRFTISRDNAKNTVYLQMNSLKPEDTAVYYCAAYWRSRNRFFWGQGTQVTVSS | high polyreactivity
20 | QEQLVESGGGLVQAGGSLRLTCAASGRTFFRYARGWYRQAPGKEREVVAAISSGGSTYYADTVKGRFTISRDNAKNTVYLQMNSLKPEDTAVYYCATRNYRLWPYVSVAYDYCGQGTQVTVSS | high polyreactivity
21 | QVQLVESGGGLVQAGGSLRLSCAASGYTFRSYLGWYRQAPGKEREFVADISTSVTNTYYADSVKGRFTISRDNAKNTVYLQMISLKPEDTAVYYCAAGVQSVYNGEPGIILDFDYWGQGTQVTVSS | low polyreactivity
22 | QVQLLESGGGLVQAGGSLRLSCAPSGRIFGYYAMGWYRQEPGKERELVAAISRGGSTNYADSVKGRFTISRDNAKNTVYLQMNSLKPEDTAVYYCAALVYRSYNNYYWGQGTQVTVSS | high polyreactivity

Row | Sequence | polyreactivity (PSR sort gate)
23 | QVQLVESGGGLVQAGGSLRLSCAASGLTFKPYAMVWYRQAPGKEREFVAAISWRSGSTYYADSVKGRFTISRDYEKNTVYLQMNRLKPEDTAVYYCNALYRVFVGTYDFWGQGTHVTVSS | high polyreactivity
24 | QVQLVESGGGLVQAGGSLRLSCAASGRTFCTNAMGWYRQAPGKERELVAVISGSTGSTYYADSVKGRFTISRDNAKNTVYLQMNSLKPEDTAVYYCAASYRNTGRWSYRGDYWGQGTQVTVSS | high polyreactivity
25 | QVQLVESGGGLVQAGGSLRLSCAASGRIFGRYAMGWYRQAPGKERELVASITRRGGSTYYADSVKGRFTISRDNAKNTVYLQMNSLKPEDTAVYYCAAGGFSWEGDSWGQGTQVTVSS | high polyreactivity
26 | QVQLGESGGGLVQAGGSLRLSCAASGRIFYLNVMGWYRQAPGKERELVAAITRRDVTTYADSVKGRFTISRDNAKNTVYLQMNSLKPEDTAVYYCNAVYYNWIGFDYWGQGTQVTVSS | low polyreactivity
27 | QVQLVESGGGLVQAGGSLRLSCAASGSIFYWYAMGWYRQAPGKERELVAAISSGGSTNYADSVKGRFTISRDNAKNTVYLQMNSLKPEDTAVYYCNADIRSFYWEYYTGLDSWGQVTQVTVSS | low polyreactivity
28 | QVQLVESGGGLVQAGGSLRLSCAASGSIFPIYAMGWDRQAPGKERELVASINISGGRTYYADSVKGRFTISRDNAKNTVYLQMNSLKPEDSAVYYCAAEWYTTSEYDYWGQGTQVTVSS | low polyreactivity
29 | QVQLVESGGGLVQAGGSLRLSCAASGSIFGGYAMGGYRQAPGKERELVAAISWSGDSTYYADSVKGRFTISRDNANNTDYLQMNSLKPEDTAVYYCAAYYLAWYAFRYKTVGSAMDYWGQGTQVTVSS | low polyreactivity
30 | QVQLVESGGGLVQAGGSLRLSCAASGRTSAINAMGWYRQAPGKERELVADITRTGGTYADSVKGRFTISRDNAKNTVYLQMNSLKPEDTAVYYCAAVGPWRFDYWGQGTQVTVSS | high polyreactivity
31 | QVQLVESGGGLVQAGGSLRLSCAASGGIFQGYAMGWYRQAPGKERELVAAISRSGGRTYYADSVKGRFTISRDNAKKTVYLQMNSLKPEDTSVYYCAADIRLSKYDYRGQGTQVTVSS | high polyreactivity
32 | QVQLVESGGGLVQAGGRLRLSCAASGLTYTRYTMGWYRPAPGKERELVAAITSSGGSTYYADSVKGRFTISRDNAKNTVFLQMNSLKPEDTAVYFCAARYPGTRGDGYWGQGTQVTVSS | high polyreactivity
33 | QVQLVESGGGLVQSGGSLRLSCAASGGTFHKYDMGWYRQAPGKERELVAAITRSGGSTYYADSVKGRFTISRDNAKNTVYLQMNSLKPEDTAVYFCNAGKRGSTYYYWGQGTQVTVSS | high polyreactivity
34 | QVQLVESGGGLVQAGGSLRFSCAASGRICVIYAIGWYRQAPGKERELVAVINDDGSTNYADSVKGRFTISRDNAKNTVYLQMNSLKPEDTAVYYCATDYVRHAGWRRYDYWGQGTQVTVSS | low polyreactivity
35 | QVQLVESGGGLVQAGGSLRLSCAASGIIFTYYAMGWYRQAPGKEREFVAAISNGGSNTRYADSVKGRFTISRDNAKNTVYLQMNSLKPEDTAVYYCAARAYQHYNWGQGTQVTVSS | high polyreactivity
36 | QVQLVESGGGLVQAGGSLRLSCAASGRIFYSYAMGWYRQAPGKERELVARISSGGSTNYADSVKGRFTISRDNAKNTVYLQMNSLKPEDTAVYYCAAATIWSGVHYGYWGQGTQVNVSS | low polyreactivity
37 | QVQLVESGGGLVQAGGSLRLSCAASGITFTPNAMGWYRQAPGTEREFVAAITYSGGSTYYADSVKGRFTISRDNAKNTVYLQMNSLKPEDTAVYYCAAVYDLLYYEAYYYWGQGTQVTVSS | low polyreactivity
38 | QVQLVESGGGLVQAGGSLRLSCAASGRTFSVNAMGWSRQAPGKERELVAAITYSGGGTYYADSVKGRFTISRDNAKNPVYLQMNSLKPEDTAVYYCAAPVYTWYHRYDYWGQGTQVTVSS | high polyreactivity
39 | QVQLVESGGGLVQAGGSLRLSCAASGIIFPAYAMGWYRQARGKERELVAAITSRGGSTYYADSVKGRFTISRDNAKNTVYLQMNSLKPEDTAVYYCNAAALADYDYWGQGTQVTVSS | low polyreactivity
40 | QVLLVESGGGLVQAGGSLRLSCAASGYIIDVNAMGWYRQAPGKERELVASISSGTSTYYADSVKGRFTISRDNAKNTVYLQMNSLKPEDTAVYYCNAGVEFAASLYYSDNYDYWGQGTQVTVSS | low polyreactivity
41 | QVQLVESGGGLVQAGGSLRLSCAASGTLSRYAMGWYIQAPGKERELVAAISWTGGSTYYADSVKGRFTISRDNAKYTVYLQMNSLKPEDTAVYYCNGAWRLRGDATYGYWGQGTQVTVSS | high polyreactivity
42 | QDQLVESRGGLVQAGGSLRLSCAASGRIFGYNAMGWYTQAPGKERELVAGITSVGRTYYADSVKGRFTISRDNAKNTVYLQMNSLKPEDTAVYYCNAASYSLAVTAEYEDMDYWGQGTQVTVTS | low polyreactivity
43 | QVQLVESGGGLVQAGGSLRLSSAPSGRTFLSNAMGWYRQAPGKERELVAAITWETDSTYYADSVKGLFTISRDNAKNTVYLQMNSLKPEDTAVYYCAARRYRPFTDYDGRTWWTRDYWGQGTQVTVSS | low polyreactivity
